Data as given in patent US9297028B2, “Fermentive production of four carbon alcohols” (Butamax Advanced Biofuels LLC, priority 2005, dated 2016).
Blank lines part the entries; values can stand above or below the substance they belong to.

Columns and labels:
[1] = Hydroxybutyryl-CoA dehydrogenase activity (rate of oxidation of NADH, absorbance at 340 nm); format: biochemical
Method: Hydroxybutyryl-CoA dehydrogenase activity was determined by measuring the rate of oxidation of NADH as measured by the decrease in absorbance at 340 nm. A standard assay mixture contained 50 mM MOPS, pH 7.0, 1 mM DTT and 0.2 mM NADH. The cocktail was equilibrated for 5 min at 37° C. and then the cell free extract was added. Reactions were initiated by addition of the substrate, 0.1 mM acetoacetyl-CoA. In one typical assay, the specific activity of the BHBD protein in the induced culture was determined to be 57.4 μmol mg^−1 min^−1 compared to 0.885 μmol mg^−1 min^−1 in the uninduced culture.
(§1) For enzyme activity analysis, a single colony of each strain was streaked onto a fresh plate containing SD minimal drop out medium and incubated at 30° C. for 2 days. The cells on this plate were used to inoculate 20 mL of SD drop out medium and in a 125 mL shake flask and grown overnight at 30° C., with shaking at 250 rpm. The optical density (OD600) of the overnight culture was measured, and the culture was diluted to an OD600=0.1 in 250 mL of the same medium in a 1.0 L shake flask, and grown at 30° C. with shaking at 250 rpm to an OD600 of between 0.8 to 1.0. The cells were then harvested by centrifugation at 2000×g for 10 min, and resuspended in 20 mL of 50 mM Tris-HCl buffer, pH 8.5. Enzyme assays were performed as described above.

[2] = Acetoacetyl-CoA thiolase activity in cell free extracts (decrease in absorbance at 303 nm); format: biochemical
Method: Acetoacetyl-CoA thiolase activity in the cell free extracts was measured as degradation of a Mg^2+-acetoacetyl-CoA complex by monitoring the decrease in absorbance at 303 nm. Standard assay conditions were 100 mM Tris-HCl pH 8.0, 1 mM DTT (dithiothreitol) and 10 mM MgCl2. The cocktail was equilibrated for 5 min at 37° C.; then the cell-free extract was added. The reaction was initiated with the addition of 0.05 mM acetoacetyl-CoA plus 0.2 mM CoA. Protein concentration was measured by either the Bradford method or by the Bicinchoninic Kit (Sigma, catalog no. BCA-1). Bovine serum albumin (Bio-Rad, Hercules, Calif.) was used as the standard in both cases. In one typical assay, the specific activity of the ThlA protein in the induced culture was determined to be 16.0 μmol mg^−1 min^−1 compared to 0.27 μmol mg^−1 min^−1 in the uninduced culture.
as §1

[3] = yeast strain DPD5200 (BY4743/pNY103), standard conditions
[4] = yeast strain DPD5206 (BY4741/pNY102)

- Hbd activity ([1]; yeast strain BY4741 (pNY6), in words): good
Substance: BHBD: 3-hydroxybutyryl-CoA dehydrogenase encoded by hbd from C. acetobutylicum ATCC 824, SEQ ID NO:6
- Hbd activity ([1]; yeast BY4741 containing pNY10, hbd under GPD promoter): 1.8 U/mg
- Hbd enzyme activity [1, 3]: 0.21 U/mg
- Hbd activity [1, 4]: 0.76 U/mg
- Hbd activity ([1]; yeast, GALL promoter controlled hbd): 0.40 U/mg

Substance: ThlA: acetyl-CoA acetyltransferase encoded by thlA from C. acetobutylicum ATCC 824, SEQ ID NO:2
- ThlA activity ([2]; yeast BY4741 containing pNY10 (thlA with one base deletion, truncated protein), in words): no ThlA activity
- ThlA activity ([2]; yeast BY4741 transformed with pNY12 (FBA1 promoter)): 1.66 U/mg
- ThlA enzyme activity [2, 3]: 0.49 U/mg
- ThlA activity [2, 4]: 1.24 U/mg
